Data taken from patent US12503511 (COMPASS THERAPEUTICS, dated 2025).

T1: murine PD-1 expressed on cells (murine, UniProt Q02242 25-288)
T1 construct: whole, on cells; also called muPD-1; mouse PD-1
T1 sequence (looked up): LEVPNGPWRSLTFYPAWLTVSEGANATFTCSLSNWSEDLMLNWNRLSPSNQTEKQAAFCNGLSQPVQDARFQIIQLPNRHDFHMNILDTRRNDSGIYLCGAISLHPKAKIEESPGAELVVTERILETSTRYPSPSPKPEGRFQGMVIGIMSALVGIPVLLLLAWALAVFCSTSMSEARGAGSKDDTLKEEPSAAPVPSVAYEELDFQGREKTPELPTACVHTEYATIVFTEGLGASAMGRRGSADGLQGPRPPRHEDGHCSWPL


Key:
[1] = target: T2, murine PD-L1 expressed on cells (murine, UniProt Q9EP73 19-290); assay: cell binding titration, A20 cells expressing murine PD-L1
T2 construct: whole, on cells; also called muPDL1; mouse PD-L1

[2] = target: T3, human PD-L1 expressed on cells (human, UniProt Q9NZQ7 19-290); assay: cell binding titration, HEK cells expressing human PD-L1
T3 construct: also called huPDL1; human PD-L1 on HEK cells

[3] = target: T4, purified recombinant His tagged human PD-L1 (human, UniProt Q9NZQ7 19-238); assay: SPR (Carterra MX96), antibody on chip, His-tagged human PD-L1 injected
T4 construct: not shown: His tag

[4] = target: T3, human PD-L1 expressed on cells; assay: cell binding EC50 on HEK-human PD-L1; fold improvement, reference taken as parent mAb24
[5] = target: T4, purified recombinant His tagged human …; assay: SPR KD; fold improvement, reference taken as parent mAb24
[6] = target: T5, cyno PD-1 expressed on cells (cynomolgus); assay: cell binding titration, CHO cells expressing cyno PD-1
T5 construct: whole, on cells; also called cyPD-1; cynomolgus PD-1

[7] = target: T6, human PD-1 expressed on cells (human, UniProt Q15116 25-288); assay: cell binding titration, CHO cells expressing human PD-1
T6 construct: also called huPD-1; CHO cells expressing human PD-1

[8] = target: T1, murine PD-1 expressed on cells; assay: cell binding titration, CHO cells expressing murine PD-1
[9] = target: T7, purified recombinant His tagged human PD-1 (human, UniProt Q15116 25-170); assay: SPR (Carterra MX96), antibody on chip, His-tagged human PD-1 injected
T7 construct: not shown: His tag

[10] = target: T7, purified recombinant His tagged human …; assay: SPR KD; fold improvement over parent mAb25
[11] = target: T5, cyno PD-1 expressed on cells; assay: cell binding EC50 on CHO-cyno PD-1; fold improvement over parent mAb25
[12] = target: T6, human PD-1 expressed on cells; assay: cell binding EC50 on CHO-human PD-1; fold improvement over parent mAb25

T4 sequence (Q9NZQ7 19-238 limits assumed): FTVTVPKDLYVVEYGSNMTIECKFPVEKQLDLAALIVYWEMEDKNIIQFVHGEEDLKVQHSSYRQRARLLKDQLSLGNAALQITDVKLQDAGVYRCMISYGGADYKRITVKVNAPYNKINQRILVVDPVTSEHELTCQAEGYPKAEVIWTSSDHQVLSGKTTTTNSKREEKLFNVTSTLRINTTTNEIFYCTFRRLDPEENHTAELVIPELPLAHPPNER
T7 sequence (Q15116 25-170 limits assumed): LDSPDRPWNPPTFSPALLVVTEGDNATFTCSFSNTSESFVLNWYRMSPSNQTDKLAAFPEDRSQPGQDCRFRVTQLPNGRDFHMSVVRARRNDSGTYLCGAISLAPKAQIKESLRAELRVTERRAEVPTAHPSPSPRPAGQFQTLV
T6 sequence (Q15116 25-288 limits assumed): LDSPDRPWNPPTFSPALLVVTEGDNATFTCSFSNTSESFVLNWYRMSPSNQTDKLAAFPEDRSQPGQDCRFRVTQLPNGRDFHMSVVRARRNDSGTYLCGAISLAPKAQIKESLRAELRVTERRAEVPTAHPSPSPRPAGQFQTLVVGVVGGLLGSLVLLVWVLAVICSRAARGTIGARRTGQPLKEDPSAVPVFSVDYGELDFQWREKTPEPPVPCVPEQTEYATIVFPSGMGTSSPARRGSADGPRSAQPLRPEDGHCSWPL
T3 sequence (Q9NZQ7 19-290 limits assumed): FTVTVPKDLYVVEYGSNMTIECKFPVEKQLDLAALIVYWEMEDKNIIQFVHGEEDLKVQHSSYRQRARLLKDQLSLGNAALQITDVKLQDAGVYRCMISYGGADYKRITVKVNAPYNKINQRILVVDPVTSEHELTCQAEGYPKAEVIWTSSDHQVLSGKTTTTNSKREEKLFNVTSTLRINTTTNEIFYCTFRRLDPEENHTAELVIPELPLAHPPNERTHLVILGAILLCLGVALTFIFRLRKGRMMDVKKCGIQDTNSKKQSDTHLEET
T2 sequence (Q9EP73 19-290): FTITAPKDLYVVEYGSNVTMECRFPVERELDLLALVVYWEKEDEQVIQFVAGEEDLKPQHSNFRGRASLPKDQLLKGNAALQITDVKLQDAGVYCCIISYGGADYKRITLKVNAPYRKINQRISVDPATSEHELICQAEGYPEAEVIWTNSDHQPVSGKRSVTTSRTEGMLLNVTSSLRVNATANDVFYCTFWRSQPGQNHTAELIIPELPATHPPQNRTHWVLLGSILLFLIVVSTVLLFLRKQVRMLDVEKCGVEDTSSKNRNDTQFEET

| Binder | binding result [1] | EC50 [2] [nM] | Kd [3] [nM] | Fold Improvement [4] [fold] | Fold Improvement [5] [fold] | EC50 [6] [nM] | EC50 [7] [nM] | binding result [8] | Kd [9] [nM] | Fold improvement over Parent [10] [fold] | EC50 [8] [nM] | Fold improvement over Parent [11] [fold] | Fold improvement over Parent [12] [fold] |
| --- | --- | --- | --- | --- | --- | --- | --- | --- | --- | --- | --- | --- | --- |
| mAb23 (antibody, V domains shown) VH: QVQLVQSGAEVKKPGSSVKVSCKASGGTFSSYAINWVRQAPGQGLEWMGGIIPVFGTATYAQKFQGRVTITADESTSTAYMELSSLRSEDTAVYYCARLKGELKDAFDIWGQGTMVTVSS VL: not shown | no binding | 0.83 | 369 | 0.2 | – | – | – | – | – | – | – | – | – |
| mAb11 (antibody, V domains shown) VH: QVQLVQSGAEVKKPGSSVKVSCKASGGTFSSYAINWVRQAPGQGLEWMGGVIPFLGTANYAQKFQGRVTITADESTSTAYMELSSLRSEDTAVYYCARLKGILKDALDIWGQGTLVTVSS VL: not shown | no binding | 1.37 | 156 | 0.1 | – | – | – | – | – | – | – | – | – |
| mAb13 (antibody, V domains shown) VH: QVQLVQSGAEVKKPGSSVKVSCKASGGTFSSYAISWVRQAPGQGLEWMGGIIPVFGTATYAQKFQGRVTITADESTSTAYMELSSLRSEDTAVYYCARLKGEFKDAFDIWGQGTLVTVSS VL: not shown | no binding | 1.43 | 52.3 | 1 | 0.1 | – | – | – | – | – | – | – | – |
| mAb21 (antibody, V domains shown) VH: QVQLVQSGAEVKKPGSSVKVSCKASGGPFRSHAVSWVRQAPGQGLEWMGGIIPVFGTATYAQKFQGRVTITADESTSTAYMELSSLRSEDTAVYYCARLKSELKDAFDIWGQGTLVTVSS VL: not shown | no binding | 0.14 | 91.5 | 1 | 0.1 | – | – | – | – | – | – | – | – |
| mAb14 (antibody, V domains shown) VH: QVQLVQSGAEVKKPGSSVKVSCKASGGTFSSYAISWVRQAPGQGLEWMGRIIPLFGTAHYAQKFQGRVTITADESTSTAYMELSSLRSEDTAVYYCARLKGELKDAFDIWGQGTLVTVSS VL: not shown | no binding | 1.54 | – | 0.1 | – | – | – | – | – | – | – | – | – |
| mAb12 (antibody, V domains shown) VH: QVQLVQSGAEVKKPGSSVKVSCKASGGTFSSYAISWVRQAPGQDLEWMGGIIPIVGIANYAQKFQGRVTITADESTSTAYMELSSLRSEDTAVYYCARLKGELKDAFDIWGQGTLVTVSS VL: not shown | no binding | 1.23 | 358 | 0.1 | – | – | – | – | – | – | – | – | – |
| mAb25 (antibody, V domains shown, also called parent PD-1 antibody mAb25) VH: EVQLLESGGGLVQPGGSLRLSCAASGFTFSDYAMSWVRQAPGKGLEWVSAISNSGTYTYYADSVKGRFTISRDNSKNTLYLQMNSLRAEDTAVYYCARGLDFIVGATGNDYWGQGTLVTVSS VL: not shown | – | – | – | – | – | 8.59 | 0.915 | no binding | 240 | – | – | – | – |
| mAb26 (antibody, V domains shown) VH: EVQLLESGGGLVQPGGSLRLSCAASGFTFSDYAMSWVRQAPGKGLEWVSAISNSGTYTYYADSVKGRFTISRDNSKNTLYLQMNSLRAEDTAVYYCARGLDFIVGYTGNDYWGQGTLVTVSS VL: not shown | – | – | – | – | – | 1.54 | 3.74 | – | 10 | 24 | 17.9 | 5.6 | 0.2 |
| mAb27 (antibody, V domains shown) VH: EVQLLESGGGLVQPGGSLRLSCAASGFTFSSYAMSWVRQAPGKGLEWVSAISNSGTYTYYADSVKGRFTISRDNSKNTLYLQMNSLRAEDTAVYYCARGLDFIVGYTGNDYWGQGTLVTVSS VL: not shown | – | – | – | – | – | 1.53 | 1.75 | – | 2.3 | 104 | 6.14 | 5.6 | 0.5 |
| mAb29 (antibody, V domains shown) VH: EVQLLESGGGLVQPGGSLRLSCAASGFTFSNYALSWVRQAPGKGLEWVSAISNSGTYTYYADSVKGRFTISRDNSKNTLYLQMNSLRAEDTAVYYCARGLDFIVGYTGNDYWGQGTLVTVSS VL: not shown | – | – | – | – | – | 1.73 | 1.27 | – | 8.6 | 28 | 2.14 | 5 | 0.7 |

Now from value to binder:

| binding result [1] | EC50 [2] [nM] | Kd [3] [nM] | Fold Improvement [4] [fold] | Fold Improvement [5] [fold] | EC50 [6] [nM] | EC50 [7] [nM] | binding result [8] | Kd [9] [nM] | Fold improvement over Parent [10] [fold] | EC50 [8] [nM] | Fold improvement over Parent [11] [fold] | Fold improvement over Parent [12] [fold] | Binder |
| --- | --- | --- | --- | --- | --- | --- | --- | --- | --- | --- | --- | --- | --- |
| no binding | – | – | – | – | – | – | – | – | – | – | – | – | mAb7 (antibody, V domains shown) VH: QVQLVQSGAEVKKPGSSVKVSCKASGGTFSSYAINWVRQAPGQGLEWMGGIIPNFGTATYAQKFQGRVTITADESTSTAYMELSSLRSEDTAVYYCARLKGELKGAGDIWGQGTLVTVSS VL: not shown |
| no binding | – | – | – | – | – | – | – | – | – | – | – | – | mAb15 (antibody, V domains shown) VH: QVQLVQSGAEVKKPGSSVKVSCKASGGTFSSYAISWVRQAPGQGLEWMGRINPILGTANYAQKFQGRVTITADESTSTAYMELSSLRSEDTAVYYCARLKGELKDAFSIWGQGTLVTVSS VL: not shown |
| no binding | – | – | – | – | – | – | – | – | – | – | – | – | mAb16 (antibody, V domains shown) VH: QVQLVQSGAEVKKPGSSVKVSCKASGGTFSSYAINWVRQAPGQGLEWMGRIIPIFGTADYAQKFQGRVTITADESTSTAYMELSSLRSEDTAVYYCARLKGELKDAFDIWGQGTLVTVSS VL: not shown |
| – | – | – | – | – | 1.9 | 1.71 | – | 5.5 | 44 | 1.87 | 4.5 | 0.5 | mAb31 (antibody, V domains shown) VH: EVQLLESGGGLVQPGGSLRLSCAASGFTFRSYAMSWVRQAPGKGLEWVSAISNSGTYTYYADSVKGRFTISRDNSKNTLYLQMNSLRAEDTAVYYCARGLDFIVGYTGNDYWGQGTLVTVSS VL: not shown |
| – | – | – | – | – | 1.29 | 1.51 | – | 2.1 | 114 | 2.8 | 6.7 | 0.6 | mAb32 (antibody, V domains shown) VH: EVQLLESGGGLVQPGGSLRLSCAASGFTFGRYAMSWVRQAPGKGLEWVSAISNSGTYTYYADSVKGRFTISRDNSKNTLYLQMNSLRAEDTAVYYCARGLDFIVGYTGNDYWGQGTLVTVSS VL: not shown |
| – | – | – | – | – | 2.66 | 1.64 | – | 9 | 27 | – | 3.2 | 0.6 | mAb35 (antibody, V domains shown) VH: EVQLLESGGGLVQPGGSLRLSCAASGFTFSGYAMSWVRQAPGKGLEWVSAISNSGTYTYYADSVKGRFTISRDNSKNTLYLQMNSLRAEDTAVYYCARGLDFIVGRTGNDYWGQGTLVTVSS VL: not shown |
| – | – | – | – | – | 2.05 | 2.77 | – | 3.1 | 77 | 4.05 | 4.2 | 0.3 | mAb30 (antibody, V domains shown) VH: EVQLLESGGGLVQPGGSLRLSCAASGFTFSAYAMNWVRQAPGKGLEWVSAISNSGTYTYYADSVKGRFTISRDNSKNTLYLQMNSLRAEDTAVYYCARGLDFIVGYTGNDYWGQGTLVTVSS VL: not shown |
| – | – | – | – | – | 1.19 | 1.01 | – | 7.7 | 31 | – | 7.2 | 0.9 | mAb36 (antibody, V domains shown) VH: EVQLLESGGGLVQPGGSLRLSCAASGFTFSSYAMNWVRQAPGKGLEWVSAISNSGTYTYYADSVKGRFTISRDNSKNTLYLQMNSLRAEDTAVYYCARGLDFIVGRTGNDYWGQGTLVTVSS VL: not shown |
